Results reported in patent US20050100554A1 (published 2005).

Key:
CKM = target: T1, CKM (human, UniProt P06732 1-381); assay: Y2H; INT ID 403
T1 construct: also called MARK4

[1] = target: T2, kinesin-associated protein 3 (human, UniProt Q92845 1-792); assay: Y2H; INT ID 406
T2 construct: also called KIFAP3; cbe_4138433

yeast Sec31p homolog = target: T3, yeast Sec31p homolog (human, UniProt O94979 1-1220); assay: Y2H; INT ID 408
T3 construct: also called KIAA0905; cbe_4383836
T3 sequence: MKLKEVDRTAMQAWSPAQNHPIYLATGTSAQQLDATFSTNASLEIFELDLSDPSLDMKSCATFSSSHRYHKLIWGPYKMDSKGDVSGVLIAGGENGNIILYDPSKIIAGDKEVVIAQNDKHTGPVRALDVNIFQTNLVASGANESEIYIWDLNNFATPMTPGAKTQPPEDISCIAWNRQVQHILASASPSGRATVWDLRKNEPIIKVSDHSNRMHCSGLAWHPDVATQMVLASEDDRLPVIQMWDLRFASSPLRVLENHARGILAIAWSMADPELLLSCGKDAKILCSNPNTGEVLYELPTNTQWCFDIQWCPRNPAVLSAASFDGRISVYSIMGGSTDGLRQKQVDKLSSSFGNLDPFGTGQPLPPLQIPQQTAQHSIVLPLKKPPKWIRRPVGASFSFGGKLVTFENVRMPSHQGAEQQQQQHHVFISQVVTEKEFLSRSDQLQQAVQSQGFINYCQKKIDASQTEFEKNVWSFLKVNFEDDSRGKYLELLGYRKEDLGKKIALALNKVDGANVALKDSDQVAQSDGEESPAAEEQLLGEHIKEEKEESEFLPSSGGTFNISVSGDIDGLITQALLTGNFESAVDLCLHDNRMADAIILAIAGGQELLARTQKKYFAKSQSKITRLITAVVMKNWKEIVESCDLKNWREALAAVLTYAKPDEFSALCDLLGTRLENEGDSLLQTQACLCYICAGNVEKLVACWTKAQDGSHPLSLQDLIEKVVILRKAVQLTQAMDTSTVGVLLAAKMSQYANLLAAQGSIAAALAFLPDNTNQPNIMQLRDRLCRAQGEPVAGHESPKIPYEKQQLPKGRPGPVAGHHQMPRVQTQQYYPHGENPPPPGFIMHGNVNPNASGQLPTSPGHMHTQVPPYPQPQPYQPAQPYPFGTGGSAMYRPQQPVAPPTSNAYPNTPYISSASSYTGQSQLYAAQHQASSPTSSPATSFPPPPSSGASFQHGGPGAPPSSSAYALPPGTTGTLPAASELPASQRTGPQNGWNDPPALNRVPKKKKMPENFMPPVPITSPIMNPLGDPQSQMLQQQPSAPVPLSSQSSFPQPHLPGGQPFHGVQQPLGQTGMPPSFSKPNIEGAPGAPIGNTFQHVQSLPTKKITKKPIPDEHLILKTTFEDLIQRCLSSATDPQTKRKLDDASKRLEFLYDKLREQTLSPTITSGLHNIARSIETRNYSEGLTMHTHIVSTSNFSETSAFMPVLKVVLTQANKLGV

[2] = target: T4, tripartite motif-containing 29 (human, UniProt Q14134 1-588); assay: Y2H; INT ID 404
T4 construct: also called TRIM29; cbe_3833533
T4 sequence: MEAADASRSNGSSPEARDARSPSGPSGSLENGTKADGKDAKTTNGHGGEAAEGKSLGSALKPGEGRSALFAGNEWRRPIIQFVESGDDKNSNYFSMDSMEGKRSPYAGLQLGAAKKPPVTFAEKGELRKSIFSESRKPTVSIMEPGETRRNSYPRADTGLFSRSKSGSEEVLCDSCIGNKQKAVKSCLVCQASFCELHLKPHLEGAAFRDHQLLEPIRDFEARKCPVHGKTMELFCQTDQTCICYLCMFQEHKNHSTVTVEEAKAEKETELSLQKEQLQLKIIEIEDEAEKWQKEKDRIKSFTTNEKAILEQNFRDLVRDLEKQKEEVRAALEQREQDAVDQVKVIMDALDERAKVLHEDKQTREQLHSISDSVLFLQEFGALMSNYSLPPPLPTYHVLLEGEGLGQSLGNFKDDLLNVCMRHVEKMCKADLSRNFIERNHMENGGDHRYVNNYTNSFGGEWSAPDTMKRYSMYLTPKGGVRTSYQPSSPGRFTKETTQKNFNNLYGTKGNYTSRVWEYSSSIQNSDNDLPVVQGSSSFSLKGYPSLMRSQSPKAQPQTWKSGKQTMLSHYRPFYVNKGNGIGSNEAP

Y2H; INT ID 393 = target: the molecule itself; assay: Y2H; INT ID 393
[3] = target: T5, hypothetical protein FLJ22729 (human, UniProt Q96QE5 203-360); assay: Y2H; INT ID 398
T5 construct: also called cbe_1807361
T5 sequence: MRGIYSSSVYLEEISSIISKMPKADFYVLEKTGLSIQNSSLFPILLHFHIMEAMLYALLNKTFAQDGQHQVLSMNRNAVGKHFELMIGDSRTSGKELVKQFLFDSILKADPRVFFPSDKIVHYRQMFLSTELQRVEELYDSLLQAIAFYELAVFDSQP

TNNC1 = target: T6, TNNC1 (human, UniProt P63316 1-161); assay: Y2H; INT ID 407
T6 construct: also called cbe_4267981

Prey1207 = target: T7, Prey1207 (human, UniProt Q6PI78 63-240); assay: Y2H; INT ID 409
T7 construct: also called LOC157378; hypothetical protein BC017881
T7 sequence: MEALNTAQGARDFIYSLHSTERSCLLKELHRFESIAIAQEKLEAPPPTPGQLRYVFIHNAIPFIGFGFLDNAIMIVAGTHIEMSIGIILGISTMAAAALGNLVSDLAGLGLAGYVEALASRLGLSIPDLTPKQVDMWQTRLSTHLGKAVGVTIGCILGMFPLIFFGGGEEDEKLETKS

[4] = target: T8, tumor necrosis factor, alpha-induced protein 1 (endothelial) (human, UniProt Q13829 1-316); assay: Y2H; INT ID 402
T8 construct: also called TNFAIP1; cbe_3705944
T8 sequence: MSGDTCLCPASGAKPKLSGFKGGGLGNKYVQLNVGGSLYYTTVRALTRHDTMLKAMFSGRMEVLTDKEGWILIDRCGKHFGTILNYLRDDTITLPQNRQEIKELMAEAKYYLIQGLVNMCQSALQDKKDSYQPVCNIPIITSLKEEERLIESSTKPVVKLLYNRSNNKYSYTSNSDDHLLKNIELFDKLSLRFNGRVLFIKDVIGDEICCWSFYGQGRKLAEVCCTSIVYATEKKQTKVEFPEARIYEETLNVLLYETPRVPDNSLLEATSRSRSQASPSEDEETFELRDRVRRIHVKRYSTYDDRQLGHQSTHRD

Measured: binding result

T2 sequence (Q92845 whole entry): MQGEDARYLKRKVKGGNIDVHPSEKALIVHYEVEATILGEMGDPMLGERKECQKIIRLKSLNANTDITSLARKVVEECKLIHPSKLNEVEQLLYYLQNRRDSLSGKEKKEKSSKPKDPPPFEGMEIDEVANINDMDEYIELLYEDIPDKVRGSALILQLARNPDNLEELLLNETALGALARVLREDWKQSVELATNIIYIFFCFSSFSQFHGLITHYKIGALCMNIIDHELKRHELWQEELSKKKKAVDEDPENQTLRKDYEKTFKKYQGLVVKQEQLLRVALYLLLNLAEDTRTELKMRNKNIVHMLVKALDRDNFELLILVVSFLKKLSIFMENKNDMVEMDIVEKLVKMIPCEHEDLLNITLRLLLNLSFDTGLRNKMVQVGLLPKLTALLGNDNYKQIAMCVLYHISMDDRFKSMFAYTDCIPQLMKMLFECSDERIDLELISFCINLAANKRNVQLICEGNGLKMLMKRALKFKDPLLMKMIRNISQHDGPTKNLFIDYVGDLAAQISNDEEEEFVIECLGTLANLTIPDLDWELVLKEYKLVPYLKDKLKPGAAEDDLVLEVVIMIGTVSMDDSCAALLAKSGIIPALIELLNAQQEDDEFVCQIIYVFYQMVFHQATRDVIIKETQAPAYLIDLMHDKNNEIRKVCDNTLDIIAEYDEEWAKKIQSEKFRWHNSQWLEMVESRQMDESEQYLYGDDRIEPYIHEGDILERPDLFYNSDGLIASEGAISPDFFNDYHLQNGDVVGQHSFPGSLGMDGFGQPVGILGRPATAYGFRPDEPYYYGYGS
T1 sequence (P06732 whole entry): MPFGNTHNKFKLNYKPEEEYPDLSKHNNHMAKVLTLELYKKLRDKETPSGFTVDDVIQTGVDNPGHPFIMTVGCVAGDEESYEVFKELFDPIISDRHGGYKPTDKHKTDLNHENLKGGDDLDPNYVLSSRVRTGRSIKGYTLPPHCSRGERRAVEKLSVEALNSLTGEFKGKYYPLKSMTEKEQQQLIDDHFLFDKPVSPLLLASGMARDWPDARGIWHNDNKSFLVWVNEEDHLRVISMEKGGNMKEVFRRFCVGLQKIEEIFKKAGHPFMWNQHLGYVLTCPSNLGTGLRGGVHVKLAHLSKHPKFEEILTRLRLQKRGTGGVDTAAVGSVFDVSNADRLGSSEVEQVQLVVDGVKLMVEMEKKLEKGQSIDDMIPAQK

B1: Human Papillomavirus 1a E1-E4 (other)
chain: MADNKAPQGLLGLLQYTPTTQPYPRVTPPSNRRPSTTPNSQDRGRPRRSDKDSRKHLYADGLTDGEDPEVPEVEDEEKENQRPLGHPDLSLLRETLEVYTQRLKRDILQDLDDFCRKLGIHPWSV
notes: also called HPV 1a E1-E4; cbe_251740
binds: all assays above
